In paper PMC3285272:

Molecular target: S. cerevisiae Arf1 (residues 18–181) with a C-terminal GST tag (S. cerevisiae) (UniProt P11076)
Experiment: pull-down

Chain of S. cerevisiae Arf1 (residues 18–181) with a C-terminal GST tag (S. cerevisiae) (P11076 18-181): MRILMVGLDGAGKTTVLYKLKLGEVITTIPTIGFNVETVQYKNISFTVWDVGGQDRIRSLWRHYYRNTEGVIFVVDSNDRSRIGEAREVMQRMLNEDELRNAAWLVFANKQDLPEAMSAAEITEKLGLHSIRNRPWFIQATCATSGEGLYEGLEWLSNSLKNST

Substance: γζ-COP dimer with full-length γ-COP L128E (from UniProt P53620 1-874; P35604 1-177) (complex)
- percent of the binding capacity of wild-type protein: 90%
